Test results: the DeepSol protein solubility set

Assay: soluble on expression in E. coli; label from the status in PepcDB or PDB records

Sequence	soluble on expression in E. coli
MGSDKIHHHHHHMSVMETTHRQYRQTLIFGLIRIVEELFPQEEIKIQYSILDGIYCELENSPLSPREVAQIEEKLHHWLESKPKIMSCAEEDGFFHTKVNHIFVKSLYPAMHPADTYYPFTLIFYHPGFILLFSNPEHPCELPNFVPPEKLAATFLESQRWVENLHLDKVGSINLNIRKGKTTELISLAEALHEKKISLIADRILEQRRNLRIILISGPSSSGKTTFAQRLSTQLQVNGIRPIALSLDNYFCDREHTPLDEYGQYDFEALEALDLPLLNQHVKALIHGEEIECPIFDFVAGRRQPEGIRMKLEPDEILVMEGIHALNPRLLPSLERSHLFKIYISALFQPNIDTHNRISTTDVRLIRRLVRDDKYRGINPEKTLNQWSSVRRGENNNIFPYQEEADVMFNSSLLYELNALKAYAEPLLISIPKDHPYYATASHLLRVLYHFEILDIAKVPFNSILREFIGGGIY	not soluble
MGSDKIHHHHHHMEKIIEINDSIIQISDLNDRIYIMKLGKDVGELIKHVDSVCNEKKLSKVFAKVSGNKKELFEKNGYICEGKLENYYSNDDAYFMSKFFEESRKISKFSKEAEDVLNYVKTVGVNPHTKIDEKFHLKIANETDAEKLSKHYSKVFKTYPFPIDDPNYILKTMQTNVKYFIIEDNGKIVAASSCEMDIKNKCVEMTDFAVLEEYQKLGLSKYLLYIMEKIMKDNGYRVFYTIARSISYGMNITFKKMGYMYSGTAVNNTNICGNFEDMNFWYKLSE	not soluble
AGQKVMITKMITDSVANPQMKQAFEQRLAKASTEDALNDIKRDIIRSAI	soluble
MNISLSRVHFPVTTLGPGQRLGLWFQGCSIRCAGCISADTWGPGKHPLPLAQVLDDLQPWLARAEGITLSGGEPFDQPEALLALLRGLRERTGVDILVYSGHSLETLQPLLQQAEGLLDALICDPFEQQQAQTLVLRGSDNQRLIFLTELGRQRLSTYQRPLHHEDRALDVMFDDDGSVWMAGIPRRDDVLRLRDLLHDQGHQLQISAHTSRRRLEHHHHHH	not soluble
GPGSMDAVRAMDYTDIYLRPRKKESVSPQEPLRSAQVDSAAESRVEWMLKGAFSVQQLLDRVEELSARVCMFDEKMVNLTKLVKLAQGIQEEKEADIRFQQQELLSRLKRLEQACARLEDMETFKQFIISKVQETLEDAHQAFLSDLAKIRADGEEQAARTKQRIENTVSDVRRDVEERIASLWGEAEQKDLSRQEAQDTLREKLRLVESSLRDLEMSVGRDYSRVPPLQEKIDGITQSLSSLEQKVDKTAGTVVTLGNEAKQARALLMEEIETTRQWVTRNLQRVKQHVEVISSDVEQLHNGRADLSARISRISCQADMECKKLRSQLSQKALVADALDNLVQKEFYKVEDVALRHQSLRTEVGAVKDV	not soluble
MITLNHIAKTYYQGKLAVPILHGISLTIQSGEFVSIMGPSGSGKSTLMNIIGCLDRPTEGEYMLNDVNILTADESKLALIRNEYIGFVFQHFNLLPRLSAVENVELPLVYGGIKKAERRKRALEALGKVGLADRVHHLPNELSGGQKQRVAIARAIANNPTFIMADEPTGALDTKSGEQVMDIFTKLNAEGTTIVMVTHEEEVAAYSSRRIVLRDGKITEDRRCAV	not soluble
MRNERAAKLVVIGGGTGLPVLLRGLKQHELDLTAIVTVADDGGSSGRLRDELHIPPPGDVRNVLAALSDVEPLIVELFQHRFQNGNGLSGHSLGNLILAALTSITGDFVKAIREMSKVLNVRGQVLPAANKSVVLHAEMEDGSIVSGESKIPSAGKKIKRVFLTPEDIEPLPETVDAIRRADLIVIGPGSLYTSILPNLLVPKIGQEVCKAKAKKVYICNIMTQAGETPHYTVSDHVEALHAHLGGPFLDAVIINSGAIPEAIRRRYEAERAEPVRDDSSGLSLQVIRDDIVTYEDGVIRHNTAKVAALLLGLLPHR	not soluble
MSLTIYHPAELPQRQAEKSPNKTIIKYYDRESKQWRNISWSKFAAGVMNAAKALAEIGLESGERIGIYSPNMVHCLYTELGAFAMRGVVVPLYATSSPEQLRFIVEDSSMETLFVGEQFQYNNAYRVQKEYGTLKRIVVFDERVVLNPEDKTSKYFSEFVRLGDSMPNETKVKVSSREAIPSDPALIIYTSGTSGRSKGVLLLHSNLMYQMKVHSEHIPVYGPGELSIAFLPMSHIFEKAWTLFCLTTGTRIAILRDPKKVLEALPQIRPSLMCNVPRFWEKVYQGVNEKMASSPRILKGVYRRAMAVGQRYRLDYWNEGKRAPLLLSMQYAFYNCTIFTLLKRVLGLQRGRYFPTAGAPLSDEINIFLQSVNIPIIVGYGLSETTATVSFYPQRGFKIGSMGKVMPGLDARIDPDNNEILVKGESVMSEYYNLPEETAGAFTPDGYFRTGDAGRMDPDGTLYFLERIKDLYKTANGKYIAPQMIEGMLTKDPIIEQIAVIGDRFKYVSALVYPNWELVRQAAIKRGLEQARTMSVDEMAANPEINRLMMARIEAAQDSLAAYEKVKYITLLAEPFTLEKGELTETMKLKRRVINEHYAEAIEKMYEGHHHHHH	soluble
MGSDKIHHHHHHMYNKFKLMAKIYLGPAGVPHSAKKKNTVEGIRTVKELGLNAMEVEFVQGVRMSKETAEETGQVARELGVRLSVHAPYFINLCSEEKEKIEASKQRILDTADRAELMGADAIAIHIAFYGKMTPEECYQNVKEGLEEVIDKAREMGIRNVKFGVETMAKETAFGTLDEVISISKELKGVIPYIDWAHTFARQGGEIDYGKIIDRLIKELGLTHINSHFESLVYRRGKYVDEHIPIDANAPPFEPLAKELLKRDISITLICESPELERDALKMKEVLERLGYRLE	not soluble
MSYAKEMLDAIEAGQMETAKQLFTQVLAHDDDETQYNLAEELYALGFNGQAKRLYQGLLGRYPDQGDLATALADIAVSDGDTDAALNYLSRIQPGDPAYVQSLVSAADVYQTLGLYEVSEQKLLEAKRLAPDEPVVTFALGEFYFDWGHFAEAISAYNELLAAGTTELAGVNIEARLAASLAQTGQYEDAVAAYEDVGVDALDLNGRFELGGLYLQLDDPAKAITNLQAVIDSDPSYANAYLPLARAYEAQNQPDKALDTVQAGVMVDDTNPTLYALGGKLALSEDNVKLAETYLQKALAIDPEDQGNMLAWSNFLVQEERDQENVDFLDQIDRSGDVDPQIYWNMAKSYDRLENIKKARENYLLAFNRFQDSPDFLHDIIDFFQSTGARAELKAALVRYLKLVPTDDEMQARLDELNAETDLEHHHHHH	soluble
MSLHYYLGIDCGGTFIKAAIFDQNGTLQSIARRNIPIISEKPGYAERDMDELWNLCAQVIQKTIRQSSILPQQIKAIGISAQGKGAFFLDKDNKPLGRAILSSDQRAYEIVQCWQKENILQKFYPITLQTLWMGHPVSILRWIKENEPSRYEQIHTILMSHDYLRFCLTEKLYCEETNISESNFYNMREGKYDIQLAKLFGITECIDKLPPIIKSNKIAGYVTSRAAEQSGLVEGIPVVGGLFDVVSTALCADLKDDQHLNVVLGTWSVVSGVTHYIDDNQTIPFVYGKYPEKNKFIIHEASPTSAGNLEWFVNQFNLPNYDDINHEIAKLKPASSSVLFAPFLYGSNAKLGMQAGFYGIQSHHTQIHLLQAIYEGVIFSLMSHLERMQVRFPNASTLRVTGGPAKSEVWMQMLADISGMRLEIPNIEETGCLGAALMAMQAESAVEISQILNIDRKIFLPDKNQYSKYQHKYHRYLKFIEALEGHHHHHH	soluble
MKLASYLQENIVVEKNGRFTIPIKKQYRSKVSGTVIDTSSSGATVFMEPKEVGALYEQLDDLLAAESYEVETILYTLTASVLAIEKELHLAMDIMHHYDVLFAKAKYGRSIDGVIPLEHHHHHH	not soluble
MINMKFFNRVEEIKEILSILEEEPNLIYFIYGPINSGKTALINEIINNRLDKNKYVVFYIDLREIFISKYDEFEAKLRATKTFGFRLIIEVLFEEYEDDKKPIEIIRSLIKDAPSLCGIPTPKNTLEEILKKKTTKNVFKYITNILMDIKREGKQPIIIIDELQKIGDMKINGFLIYELFNYFVSLTKHKHLCHVFCLSSDSLFIERVYNEAMLKERVDYILVDDFDKETALKFIDFLSEEILNKKLSDEDKELIYSYVGGKPILIINVIGKLKHKNLKDVLNILLMDEISKLKDFLSNLDYIKPKVNIEEEIIEIRKEDIINALKLFKGKYEIEVDKIPKAVYVYLVKKNILFLYPQRGTLKPQSFLVWNAIKRVL	not soluble
MAHHHHHHMPRSIRVRHGDPDVAEGALTIEVPSSPDADNKAVGDARTPVASLGASSAFFTTYSTVSGDVAHPCANIASGAAPSDEVSPLTSALFMSVDSTPLASSCATKTAASLVNVRSFNSSATVVSVELPNLQSEHAAMTATSCFATRSRDTEAPAAAAAASATNPPPLRHPLGSAPIEGGGGQTQLAGEADTPVQDRTAAPSSSPLMAKASVSASFSGDSSKRCSHTVQSGLSDDLQLTQTTCYLPLLGSAGSREVQRSGDDIDARWVAERESVPAAEPARTTVGNDSFPAEGSEGAMVATTQSASTDVRAAACTVPASNISNTVAATATDVAAPLCPKFEVLATVPAPLVGRVPIRIHWCCAAHWRAVQRTERGAQWAVDGAPADVYCVPAHRNAKRERRSLSASCVEAKSESERGGRSFSGTGENTAWLRDAAGEVKPQHWEVRALSSAVGAPGSTLYDDSNYDAEHEKHGSLKTRSGLPHVHSHSCTDMLTCEFCGHAVERYHSEDCDDEASEASTSMTQTGRACSAPPGRFQDCHGCASAEARSLSSSKIVAFRSNQPSILTPQLLLSSSESAETTVDLDMSGAISSVDVPSWSDSAREEALMAAVALLQ	not soluble
QVVMPRPPALCQGCGHRDVYDALNKVAAEYPDARIFGDIGCYTLGALPPFRAIDSCVDMGASITMAKGASDAGVFPAIAVIGDSTFTHSGMTGLLDAVNDRANITVVISDNLTTAMTGGQDSAGTNKFEAICLGLGVEPEHVRVVVPLPKNMEEITRTIREEIEYKGVSVIIPRRECIQTLNRKLRQKKADKA	not soluble
GPGSMLLERQQLVQALQLSYHCSAACATSTVNSYYPDEEKCRATVQGKMTAPFVLAVGMVPKQREYVDSLRDDLAVAFQHFPYLNGTAKPPDKEEQKGCAKAVASGERGRNGRASSPASIDWAGVRARLLSPKKVPLWYMHTELVFPGDTHDVRIYENAYQSLIVKEGFSYVIGCYASGDGVVPALDYVNARLCGESVQSLAQRIGFDDDVVEALEGLEAEVPTRVYTRVNAFGNNPATSRSSRQDKGHAQQVLKEAGLAYVRSYVTTRADEAVAKVEDGTLLLPVVVKPNSGAGSEFVTLCYTVDDIRVAFSMVEGVRTSQGTDAAQLVVEEYIEGPEYVVNTVSYQGVHVVTDVWESWKYPEPVVTTGLTRSAEEALRAAGIKRQKQRKISILYDRQTLITNLADLPATHSARRIVEYTLKCLDALGLENGCGHSEVRLDTRKAARELRRHEQRRPKTNSPLGKVKDEHLDEGEPILIELNSRMQGDIPRSTDVIGYDQYSLLVYISEAVNVFGAATAASTALPFRVDSSRPQRVGEIPWPPVPRLYRARPSTGLPLATTVLFLATEEECILNGVALRTLTELGTFQRFTRTIFKPNQPGFVTPLRHTVDLFSSPTSCVMQGPAAAVKADCAAIRSMESAALCSAAKAALFKLTSTIHETERLRENARIIDGRLHAMTEAYRRASAQAGSATDEVADDGREKDEQGTENDCCSSQHDLEALRRSISSLQSELTWVTNNLAADDRQVQLLRTEFAKALASQKPAPLYINYQDFSMMKAAGVGNELAVL	not soluble
